Assay results taken from US20180036395A1, “DOSAGE AND ADMINISTRATION OF MONOSPECIFIC AND BISPECIFIC ANTI-IGR-1R AND ANTI-ERBB3 ANTIBODIES” (Merrimack Pharmaceuticals, Inc., priority 2012, published 2018).

What was measured:
[1] = tested on: Ewing's sarcoma or metastatic pancreatic cancer; assay: Treatment of patients with Ewing's sarcoma or metastatic pancreatic cancer; type: in vivo, human; conditions: irinotecan or nanoliposomal irinotecan + P4-G1-M1.3
Experimental: (§1) P4-G1-M1.3 is formulated in 20 mM histidine, 100 mM arginine-HCl, 3% sucrose, at pH 5.5 supplemented with 0.002-0.02% of Tween® 80 at concentration range 5-15 mg/mL. P4-G1-M1.3 is administered to patients at 6 mg/kg, 12 mg/kg, 20 mg/kg, 30 mg/kg, 40 mg/kg, 50 mg/kg or 60 mg/kg q7d, ql4d, q21d, or q28d with a loading dose of 12 mg/kg, 20 mg/kg, 40 mg/kg, 40 mg/kg or 60 mg/kg Everolimus is administered to patients at 2.5 mg, 5 mg, or 10 mg orally once a day or once every other day.
Patients with Ewing's sarcoma or metastatic pancreatic cancer are treated with a combination of an effective amount of irinotecan (Camptosar®) or nanoliposomal irinotecan and an effective amount of P4-G1-M1.3. P4-G1-M1.3 is formulated and administered as described above (e.g., Example 1). Nanoliposomal irinotecan is given i.v. at 80 mg/m^2 or 120 mg/m^2 q3w. Camptosar® is administered per manufacturer's directions.

[2] = tested on: hepatocellular carcinoma (HCC); assay: Treatment of patients with hepatocellular carcinoma; type: in vivo, human
Experimental: as §1
Patients with hepatocellular carcinoma (HCC) are treated with P4-G1-M1.3 monotherapy. Patients are dosed with P4-G1-M1.3 as described in Example 1 (second line in patients refractory to sorafenib). […] Preclinical data to support this example may be obtained using HepG2 cells in vitro and in vivo.
Patients with hepatocellular carcinoma (HCC) are treated with a combination of an effective amount of sorafenib and an effective amount of P4-G1-M1.3. Patients are dosed with P4-G1-M1.3 as described in Example 1. Patients are dosed with sorafenib at 400 mg daily. […] Preclinical data to support this example may be obtained using HepG2 cells in vitro and in vivo.

B1: P4-G1-M1.3: anti-IGF-1R+anti-ErbB3 polyvalent bispecific antibody, IgG1-(scFv)2 (SEQ ID NO:148 and SEQ ID NO:149) (protein)
chain 1: EVQLLQSGGGLVQPGGSLRLSCAASGFLFSSYPMHWVRQAPGKGLEWVGSISPSGGATPYADSVKGRFTISRDNSKNTLYLQMNSLRPEDTAVYYCAKDFYNILTGNAFDKWGQGTSVTVSSASTGGGGSGGGGSGGGGSGGGGSDIQLTQSPSSLSASLGDRVTITCRASQGISSYLAWYQQKPGKAPKLLIYAGSTPQSGVPSRFSGSGSGTEFTLTISSLQPEDSGTYYCQQYWTWPLTFGGGTKVEIKRT
chain 2: EVQLVESGGGLVQPGRSLRLSCAASGFTFDDYAMHWVRQAPGKGLEWVSGISWNSGSTGYADSVKGRFTISRDNAKNSLYLQMNSLRAEDTALYYCARDLGYNQWLEGFDYWGQGTLVTVSSASTGGGGSGGGGSGGGGSGGGGSSSELTQDPAVSVALGQTVRITCQGDSLRSYYASWYQQKPGQAPVLVIYGKNNRPSGIPDRFSGSSSGNTASLTITGAQAEDEADYYCMSRDHPGNQWVFGGGTKVTVLG
modifications: Synthetic polypeptide:Anti-IGF-1R scFvs M76; Synthetic polypeptide:Anti-ErbB3 scFvs P6L
[1]
  treatment outcome: combinatorially enhanced outcome
[2]; P4-G1-M1.3 monotherapy, second line in patients refractory to sorafenib, vs untreated historical controls or best supportive care
  HCC symptoms (e.g., time to progression or progression-free survival): statistically significant improvement in HCC symptoms
[2]; patients with HCC, sorafenib 400 mg daily + P4-G1-M1.3
  treatment outcome: combinatorially enhanced outcome
